Data from patent US20160222114A1 (published 2016).

T1: cynomolgus BTLA expressed on CHO cells (cynomolgus, UniProt A0A2K5W7M7 31-289)
T1 construct: whole, on cells; also called cyno BTLA; CHO cells expressing cynomolgus BTLA
T1 sequence: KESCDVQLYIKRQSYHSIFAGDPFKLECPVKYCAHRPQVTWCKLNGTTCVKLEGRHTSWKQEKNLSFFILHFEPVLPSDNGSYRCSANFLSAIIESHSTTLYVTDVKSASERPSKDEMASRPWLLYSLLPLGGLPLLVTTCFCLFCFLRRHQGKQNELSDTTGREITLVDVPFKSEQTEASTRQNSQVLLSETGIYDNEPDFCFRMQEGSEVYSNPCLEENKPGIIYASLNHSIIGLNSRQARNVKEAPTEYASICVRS

T2: human BTLA (analyte of the BIAcore measurements) (human, UniProt Q7Z6A9 31-156, limits assumed)
T2 sequence: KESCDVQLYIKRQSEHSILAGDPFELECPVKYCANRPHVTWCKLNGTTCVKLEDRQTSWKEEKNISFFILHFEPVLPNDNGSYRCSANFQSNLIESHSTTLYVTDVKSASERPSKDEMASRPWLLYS

B1: hu Mab8D5 Fab' fragment (Fab, V domains shown)
VH: EVQLVESGGGLVQPGGSLRLSCAASGFTISSYDMHWVRQATGKGLEWVSVIGPAGDTYYPGSVKGRFTISRENAKNSLYLQMNSLRAGDTAVYYCAREGMAAHNYYGMDVWGQGTTVTVSS
VL: not shown
B2: hu Mab8D5 G1 (IgG1 version of 8D5) (antibody, V domains shown)
VH: B1 VH
VL: not shown
notes: same variable regions as hu Mab8D5; also called IgG1 version of hu Mab8D5; 8D5 IgG1 Mab
B3: hu Mab8D5 (IgG4 version of 8D5, fully human monoclonal agonist anti-BTLA antibody) (antibody, V domains shown)
VH: B1 VH
VL: not shown
notes: Rest: human IgG4/kappa; Re-expressed in CHO-S cells; also called hu Mab8D5 G4; 8D5 (G4) agonist

Tests used:
[1] = molecular target: human BTLA, endogenous protein of peripheral blood B and T cells of healthy donors (human, UniProt Q7Z6A9 31-289); test: cell-based or functional assay
[2] = molecular target: T1, cynomolgus BTLA expressed on CHO cells; test: flow cytometry on CHO cells expressing cynomolgus BTLA, PE-anti-huFc detection
[3] = molecular target: T2, human BTLA (analyte of the BIAcore …); test: BIAcore
[4] = molecular target: T2, human BTLA (analyte of the BIAcore …); test: BIAcore surface plasmon resonance
[5] = molecular target: T2, human BTLA (analyte of the BIAcore …); test: BIAcore, antibody captured on an anti-CH1 chip
Description: For BIAcore, the test antibodies were captured on an anti-CH1 chip.

Row | Binder | relative potency of the Fab′ against the full Mab [1] [fold less] | EC50 [2] [µM] | koff [3] [s⁻¹] | kon [3] [M⁻¹ s⁻¹] | Kd [4] [µM] | koff [5] [s⁻¹] | kon [5] [M⁻¹ s⁻¹]
1 | B1 | ~10 | – | – | – | – | – | –
2 | B2 | – | ~0.012 | – | – | – | – | –
3 | B3 | – | ~0.012 | 0.000137 | 45800 | ~0.002 | 0.00019 | 79000
